Numbering of substitutions follows the chain as printed.
B1: RA189 (nucleic acid)
DNA: GCGCGTCCTGGATTCGGAATACCAGCATCGTCTTGATGCCCTTGGAAGTCCGCGGAAACGCGTACATCCAGCTGACGAGTCCCAAATAGGACGAAACGCGC
modifications: expressed or natural sequence
B2: RA190 (nucleic acid)
DNA: GCGCGTCCTGGATTCGCGAGTGATACCAGCATCGTCTTGATGCCCTTGGCAGCACTGAAACGCGTACATCCAGCTGACGAGTCCCAAATAGGACGAAACGCGC
modifications: expressed or natural sequence
B3: RA191 (nucleic acid)
DNA: GCGCGTCCTGGATTCGCGGAACGAGAATACCAGCATCGTCTTGATGCCCTTGGAAGTCTCGACGCGTACATCCAGCTGACGAGTCCCAAATAGGACGAAACGCGC
modifications: expressed or natural sequence
B4: RA192 (nucleic acid)
DNA: GCGCGTCCTGGATTCGCGGAAACGCGTACATCCAGCTGACGAGTCCCAAATGGAATACCAGCATCGTCTTGATGCCCTTGGAAGTCCAGGACGAAACGCGC
modifications: expressed or natural sequence
B5: RA193 (nucleic acid)
DNA: CCGGAATACCAGCATCGTCTTGATGCCCTTGGAAGTCCGGGCGCGTCCTGGATTCGCGGAAACGCGTACATCCAGCTGACGAGTCCCAAATAGGACGAAACGCGC
modifications: expressed or natural sequence
B6: RA194 (nucleic acid)
DNA: GCGCGTCCTGGATTCGCGGAAACGCGTACATCCAGCTGACGAGAATACCAGCATCGTCTTGATGCCCTTGGAAGTCTCGAGTCCCAAATAGGACGAAACGCGC
modifications: expressed or natural sequence
B7: RA195 (nucleic acid)
DNA: GCGCGTCGAGAATACCAGCATCGTCTTGATGCCCTTGGAAGTCTCGCCTGGATTCGCGGAAACGCGTACATCCAGCTGACGAGTCCCAAATAGGACGAAACGCGC
modifications: expressed or natural sequence
B8: RA196 (nucleic acid)
DNA: GCGCGTCCTGGATTCGCGGAAACGCGTACATCCAGCTGACGAGTCCCAAATGAGAATACCAGCATCGTCTTGATGCCCTTGGAAGTCTCAGGACGAAACGCGC
modifications: expressed or natural sequence
B9: RA197 (nucleic acid)
DNA: GCGCGTCCTGGATTCGCGGAAACGCGTACATCCAGCTGACGAGTCCCAAATAGGACAAAACGCGC
modifications: expressed or natural sequence
B10: RA019 (nucleic acid)
DNA: GCGCGTCCTGGATTCGCGGAAACGCGTACATCCAGCTGACGGGAATACCAGCATCGTCTTGATGCCCTTGGAAGTCCAGTCCCAAATAGGACAAAACGCGC
modifications: expressed or natural sequence
B11: RA198 (nucleic acid)
DNA: GCGCGTCCTGAGAATACCAGCATCGTCTTGATGCCCTTGGAAGTCTGATTCGCGGAAACGCGTACATCCAGCTGACGAGTCCCAAATAGGACGAAACGCGC
modifications: expressed or natural sequence
B12: RA199 (nucleic acid)
DNA: GCGCGTCCTGGATTCGCGGAAACAGTGATACCAGCATCGTCTTGATGCCCTTGGCAGCACTGCGTACATCCAGCTGACGAGTCCCAAATAGGACGAAACGCGC
modifications: expressed or natural sequence
B13: RA200 (nucleic acid)
DNA: GCGCGTCCTGGATTCGCGGAAACGCGTACATCCGAGAATACCAGCATCGTCTTGATGCCCTTGGAAGTCTCGCAGCTGACGAGTCCCAAATAGGACGAAACGCGC
modifications: expressed or natural sequence
B14: RA201 (nucleic acid)
DNA: GCGCGTCCTGGATTCGCGGAAACGCGAGAATACCAGCATCGTCTTGATGCCCTTGGAAGTCTCGCGTACATCCAGCTGACGAGTCCCAAATAGGACGAAACGCGC
modifications: expressed or natural sequence
B15: RA202 (nucleic acid)
DNA: GCGCGTCCTGGATAGTGATACCAGCATCGTCTTGATGCCCTTGGCAGCACTTCGCGGAAACGCGTACATCCAGCTGACGAGTCCCAAATAGGACGAAACGCGC
modifications: expressed or natural sequence
B16: RA203 (nucleic acid)
DNA: GCGCGTCCTGGATTCGCGGAAACGCGTACATCCAGCTGACGAGTCCCAAATAGGAAGAATACCAGCATCGTCTTGATGCCCTTGGAAGTCTCGAAACGCGC
modifications: expressed or natural sequence
B17: RA204 (nucleic acid)
DNA: GCGCGTCCCGGAATACCAGCATCGTCTTGATGCCCTTGGAAGTCCGTGGATTCGCGGAAACGCGTACATCCAGCTGACGAGTCCCAAATAGGACGAAACGCGC
modifications: expressed or natural sequence
B18: RA205 (nucleic acid)
DNA: GCGCGTCCTGGATTCGCGGAAACGCGTACATCCAGCTGACGAGTCCCAAATAGGACGAAACGCGGAATACCAGCATCGTCTTGATGCCCTTGGAAGTCCGC
modifications: expressed or natural sequence
B19: RA206 (nucleic acid)
DNA: GCGCGTCCTGGATTCGCCGGAATACCAGCATCGTCTTGATGCCCTTGGAAGTCCGGCGGAAACGCGTACATCCAGCTGACGAGTCCCAAATAGGACGAAACGCGC
modifications: expressed or natural sequence
B20: RA207 (nucleic acid)
DNA: GCGCGTCCTGGATTCGCGGAAACGCGTACATCCAGCTGACGAGTCCCAAGAGAATACCAGCATCGTCTTGATGCCCTTGGAAGTCTCATAGGACGAAACGCGC
modifications: expressed or natural sequence
B21: RA020 (nucleic acid)
DNA: GCGCGTCCTGGATTCGCGGAAACGCGTACATCGGAATACCAGCATCGTCTTGATGCCCTTGGAAGTCCGCCAGCTGACGAGTCCCAAATAGGACGAAACGCGC
modifications: expressed or natural sequence
B22: RA208 (nucleic acid)
DNA: GCGCGTCCTGGATTCGCGGAAACGCGTACATCCAGCTGACGAGTCCCAAACCGGAATACCAGCATCGTCTTGATGCCCTTGGAAGTCCGGTAGGACGAAACGCGC
modifications: expressed or natural sequence
B23: RA209 (nucleic acid)
DNA: GCGCGTCCTGGATTCGCGGAGAGAATACCAGCATCGTCTTGATGCCCTTGGAAGTCTCAACGCGTACATCCAGCTGACGAGTCCCAAATAGGACGAAACGCGC
modifications: expressed or natural sequence
B24: RA211 (nucleic acid)
DNA: GCGCGTCCTGGATTCGGGAATACCAGCATCGTCTTGATGCCCTTGGAAGTCCCGGAAACGCGTACATCCAGCTGACGAGTCCCAAATAGGACGAAACGCGC
modifications: expressed or natural sequence
B25: RA212 (nucleic acid)
DNA: B1 DNA with G16A, C51T
modifications: expressed or natural sequence
B26: RA213 (nucleic acid)
DNA: GCGCGTCCTGGATTCGCGGAAACGCGTACATCCAGCTCGAGAATACCAGCATCGTCTTGATGCCCTTGGAAGTCTCGGACGAGTCCCAAATAGGACGAAACGCGC
modifications: expressed or natural sequence
B27: RA214 (nucleic acid)
DNA: GCGCGTCCTGGATTCGCGAGAATACCAGCATCGTCTTGATGCCCTTGGAAGTCTCGGAAACGCGTACATCCAGCTGACGAGTCCCAAATAGGACGAAACGCGC
modifications: expressed or natural sequence
B28: RA216 (nucleic acid)
DNA: GCGCGTCCTGGATTCGCGGAAACGCGTACATCCAGCTGACGAGTCAGTGATACCAGCATCGTCTTGATGCCCTTGGCAGCACTCCAAATAGGACGAAACGCGC
modifications: expressed or natural sequence
B29: RA217 (nucleic acid)
DNA: GCGCGTCCTGGATTCCGAGAATACCAGCATCGTCTTGATGCCCTTGGAAGTCTCGGCGGAAACGCGTACATCCAGCTGACGAGTCCCAAATAGGACGAAACGCGC
modifications: expressed or natural sequence

Each molecule was assayed on Renilla luciferase RNA (assay: Barcoded aptazyme variant library screen: un-cleaved Renilla luciferase RNA by barcode read counts, HEK293-T cells). Conditions: un-cleaved Renilla luciferase RNA, HEK293-T cells cultured with 1 mM theophylline (ON) over without theophylline (OFF); barcode read counts, triplicate.
Type: cell-based
How it was run: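 Barcode sequencing of cDNA versus DNA, normalized per aptazyme, gave the un-cleaved Renilla luciferase RNA fraction and fold-change with versus without theophylline (triplicates). Library: T3H48 ribozyme with one of seven theophylline aptamer variants inserted at each position, placed in the Renilla 3′ UTR of a dual-luciferase vector.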

| Molecule | Fold change in RNA expression between the ON state and the OFF state [fold] |
| --- | --- |
| B1 | 1.2 |
| B2 | 1.2 |
| B3 | 1.2 |
| B4 | 1.2 |
| B5 | 1.2 |
| B6 | 1.2 |
| B7 | 1.2 |
| B8 | 1.2 |
| B9 | 1.2 |
| B10 | 2.7 |
| B11 | 1.2 |
| B12 | 1.2 |
| B13 | 1.2 |
| B14 | 1.2 |
| B15 | 1.2 |
| B16 | 1.2 |
| B17 | 1.2 |
| B18 | 1.2 |
| B19 | 1.2 |
| B20 | 1.2 |
| B21 | 2.7 |
| B22 | 1.2 |
| B23 | 1.2 |
| B24 | 1.2 |
| B25 | 1.2 |
| B26 | 1.2 |
| B27 | 1.2 |
| B28 | 1.2 |
| B29 | 1.2 |

Reference: patent US20260167959A1, “APTAZYME-BASED REGULATABLE GENE EXPRESSION SYSTEMS” (REJUVENATE BIO INC, priority 2022, published 2026)
